According to patent US20240240209A1, “SYNTHESIS OF ENANTIOPURE CIS-A-IRONE FROM A RENEWABLE CARBON SOURCE” (Agency for Science, Technology and Research, priority 2021, published 2024):
Numbering of substitutions follows the chain as printed.

B1: T13L (protein)
chain: MPQEARTPQQQVLADEVGDWYDKFGEVYHLTLGESVHCGLWFPPDAPVPQDMELVTMSSQAQDRFTDYLIETLDPKAGQHLLDIGCGTGRPALKAARQRGIAVTGVAVSKEQIAAANRLAAGHGLTERLTFEVADAMRLPYEDESFDCAWAIESLDHMDRAKALGEAWRVLKPGGDLLVAEEVVTEELTEPETALFETLFALNVPPRLGEFFDIVSGAGFHTLSLKDLSADLAMTMNVFALGVYSRRAEFTERFGAEFVDGLLAGLGSAQETVIRKTRFFMATLRKPAV
modifications: Modified from pMT1
B2: A14G (protein)
chain: B1 chain with L13T, A14G
modifications: Modified from pMT1
B3: A269R (protein)
chain: B1 chain with L13T, A269R
modifications: Modified from pMT1
B4: S268R (protein)
chain: B1 chain with L13T, S268R
modifications: Modified from pMT1
B5: L195V (protein)
chain: B1 chain with L13T, L195V
modifications: Modified from pMT1
B6: K94V (protein)
chain: B1 chain with L13T, K94V
modifications: Modified from pMT1
B7: A95I (protein)
chain: B1 chain with L13T, A95I
modifications: Modified from pMT1
B8: M137G (protein)
chain: B1 chain with L13T, M137G
modifications: Modified from pMT1
B9: T185V (protein)
chain: B1 chain with L13T, T185V
modifications: Modified from pMT1
B10: A269G (protein)
chain: B1 chain with L13T, A269G
modifications: Modified from pMT1
B11: E192S (protein)
chain: B1 chain with L13T, E192S
modifications: Modified from pMT1
B12: L195I (protein)
chain: B1 chain with L13T, L195I
modifications: Modified from pMT1
B13: A269L (protein)
chain: B1 chain with L13T, A269L
modifications: Modified from pMT1
B14: A14P (protein)
chain: B1 chain with L13T, A14P
modifications: Modified from pMT1
B15: T13G (protein)
chain: B1 chain with L13G
modifications: Modified from pMT1
B16: S268Q (protein)
chain: B1 chain with L13T, S268Q
modifications: Modified from pMT1
B17: A14T (protein)
chain: B1 chain with L13T, A14T
modifications: Modified from pMT1
B18: Q11L (protein)
chain: B1 chain with Q11L, L13T
modifications: Modified from pMT1
B19: S268K (protein)
chain: B1 chain with L13T, S268K
modifications: Modified from pMT1
B20: T13A (protein)
chain: B1 chain with L13A
modifications: Modified from pMT1
B21: M137H (protein)
chain: B1 chain with L13T, M137H
modifications: Modified from pMT1
B22: T13M (protein)
chain: B1 chain with L13M
modifications: Modified from pMT1
B23: A14L (protein)
chain: B1 chain with L13T, A14L
modifications: Modified from pMT1
B24: A14R (protein)
chain: B1 chain with L13T, A14R
modifications: Modified from pMT1
B25: Q11P (protein)
chain: B1 chain with Q11P, L13T
modifications: Modified from pMT1
B26: M137D (protein)
chain: B1 chain with L13T, M137D
modifications: Modified from pMT1
B27: A95L (protein)
chain: B1 chain with L13T, A95L
modifications: Modified from pMT1
B28: M137S (protein)
chain: B1 chain with L13T, M137S
modifications: Modified from pMT1
B29: M137A (protein)
chain: B1 chain with L13T, M137A
modifications: Modified from pMT1
B30: E127G (protein)
chain: B1 chain with L13T, E127G
modifications: Modified from pMT1
B31: K94R (protein)
chain: B1 chain with L13T, K94R
modifications: Modified from pMT1
B32: S268L (protein)
chain: B1 chain with L13T, S268L
modifications: Modified from pMT1
B33: T13Q (protein)
chain: B1 chain with L13Q
modifications: Modified from pMT1
B34: L129C (protein)
chain: B1 chain with L13T, L129C
modifications: Modified from pMT1
B35: L129V (protein)
chain: B1 chain with L13T, L129V
modifications: Modified from pMT1
B36: P191K (protein)
chain: B1 chain with L13T, P191K
modifications: Modified from pMT1
B37: A95V (protein)
chain: B1 chain with L13T, A95V
modifications: Modified from pMT1
B38: L129K (protein)
chain: B1 chain with L13T, L129K
modifications: Modified from pMT1
B39: M137N (protein)
chain: B1 chain with L13T, M137N
modifications: Modified from pMT1
B40: A14M (protein)
chain: B1 chain with L13T, A14M
modifications: Modified from pMT1
B41: A269Y (protein)
chain: B1 chain with L13T, A269Y
modifications: Modified from pMT1
B42: A107S (protein)
chain: B1 chain with L13T, A107S
modifications: Modified from pMT1

Experiment: In-vivo cis-α-irone production screening of pMT7 and pMT12 mutants
Type: cell-based, Escherichia coli
Conditions: mutations made to pMT12; normalized to pMT12 (=1)
Method in brief: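 E. coli BL21(DE3) ΔaroA ΔaroB ΔaroC ΔserC strains, with or without ΔmetJ, carried the plasmids and were grown in 1 ml auto-inducing defined medium (glucose/glycerol, 30 mM lactose) at 28 °C for 3 days. Products were extracted into hexane and measured by GC-MS. Production is a semi-quantitative fold change relative to pMT12.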

| Molecule | Fold change in in-vivo cis-α-irone production |
| --- | --- |
| B1 | 0.97 |
| B2 | 0.92 |
| B3 | 1.22 |
| B4 | 1.23 |
| B5 | 1.02 |
| B6 | 0.84 |
| B7 | 0.98 |
| B8 | 1.15 |
| B9 | 1.14 |
| B10 | 1.23 |
| B11 | 0.97 |
| B12 | 1.08 |
| B13 | 1.29 |
| B14 | 0.92 |
| B15 | 0.91 |
| B16 | 1.32 |
| B17 | 0.90 |
| B18 | 0.92 |
| B19 | 1.35 |
| B20 | 0.91 |
| B21 | 1.11 |

| Molecule | Fold change in in-vivo cis-α-irone production |
| --- | --- |
| B22 | 0.97 |
| B23 | 0.92 |
| B24 | 0.93 |
| B25 | 0.92 |
| B26 | 1.13 |
| B27 | 0.92 |
| B28 | 1.11 |
| B29 | 1.15 |
| B30 | 0.98 |
| B31 | 0.97 |
| B32 | 1.18 |
| B33 | 0.93 |
| B34 | 1.08 |
| B35 | 1.03 |
| B36 | 1.26 |
| B37 | 0.94 |
| B38 | 1.00 |
| B39 | 1.11 |
| B40 | 0.94 |
| B41 | 1.21 |
| B42 | 1.17 |
